What was measured:
Experiment in all cases: Kd (EC50 corrected by depletion factor)
[1] = molecular target: DHX15 (UniProt O43143)
Method: (§1)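 Competition-binding assay: HEK293-FT cell lysate (2.5 mg protein) pre-incubated 1 h at 4°C with free motif-containing RNA oligos (0 to 30 µM, 12 doses), then pulled down with the same 5'-amino-C6 RNA oligos immobilised on NHS-Sepharose beads (30 min, 4°C). Bound proteins were quantified by label-free LC-MS/MS and normalised to the water control. EC50 came from a four-parameter log-logistic fit; Kd = EC50 x depletion factor. Random/reversed control probes are dropped.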

[2] = molecular target: T1, DHX36 (UniProt Q9H2U1)
T1 sequence: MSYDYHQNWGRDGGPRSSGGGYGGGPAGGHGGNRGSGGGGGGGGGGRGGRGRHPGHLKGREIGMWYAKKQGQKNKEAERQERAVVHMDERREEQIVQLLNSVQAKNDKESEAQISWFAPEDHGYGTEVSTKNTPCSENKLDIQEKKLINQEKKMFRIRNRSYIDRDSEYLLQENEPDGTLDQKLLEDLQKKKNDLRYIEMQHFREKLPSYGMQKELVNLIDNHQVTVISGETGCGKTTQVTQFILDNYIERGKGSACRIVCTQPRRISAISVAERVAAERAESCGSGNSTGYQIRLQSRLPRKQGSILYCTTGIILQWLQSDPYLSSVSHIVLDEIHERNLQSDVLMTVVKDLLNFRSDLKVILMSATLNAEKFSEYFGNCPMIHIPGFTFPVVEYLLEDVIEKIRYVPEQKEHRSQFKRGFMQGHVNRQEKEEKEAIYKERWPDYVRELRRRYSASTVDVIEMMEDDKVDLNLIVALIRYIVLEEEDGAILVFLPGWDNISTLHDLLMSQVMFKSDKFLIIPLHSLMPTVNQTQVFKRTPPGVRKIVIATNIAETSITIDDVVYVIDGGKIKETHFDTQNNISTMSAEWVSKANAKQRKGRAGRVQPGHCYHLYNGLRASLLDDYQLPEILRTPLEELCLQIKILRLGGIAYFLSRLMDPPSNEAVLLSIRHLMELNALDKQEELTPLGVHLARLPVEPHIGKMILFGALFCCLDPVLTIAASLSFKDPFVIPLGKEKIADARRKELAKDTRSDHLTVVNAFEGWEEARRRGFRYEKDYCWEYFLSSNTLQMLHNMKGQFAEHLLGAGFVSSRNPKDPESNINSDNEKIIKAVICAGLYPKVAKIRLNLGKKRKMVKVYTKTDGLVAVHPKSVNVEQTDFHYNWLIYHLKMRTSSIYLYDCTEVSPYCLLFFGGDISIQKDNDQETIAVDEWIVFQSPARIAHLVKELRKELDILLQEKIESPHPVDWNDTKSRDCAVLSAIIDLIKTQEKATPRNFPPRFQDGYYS
Method: as §1

[3] = molecular target: T2, HNRNPUL1 (UniProt Q9BUJ2)
T2 sequence: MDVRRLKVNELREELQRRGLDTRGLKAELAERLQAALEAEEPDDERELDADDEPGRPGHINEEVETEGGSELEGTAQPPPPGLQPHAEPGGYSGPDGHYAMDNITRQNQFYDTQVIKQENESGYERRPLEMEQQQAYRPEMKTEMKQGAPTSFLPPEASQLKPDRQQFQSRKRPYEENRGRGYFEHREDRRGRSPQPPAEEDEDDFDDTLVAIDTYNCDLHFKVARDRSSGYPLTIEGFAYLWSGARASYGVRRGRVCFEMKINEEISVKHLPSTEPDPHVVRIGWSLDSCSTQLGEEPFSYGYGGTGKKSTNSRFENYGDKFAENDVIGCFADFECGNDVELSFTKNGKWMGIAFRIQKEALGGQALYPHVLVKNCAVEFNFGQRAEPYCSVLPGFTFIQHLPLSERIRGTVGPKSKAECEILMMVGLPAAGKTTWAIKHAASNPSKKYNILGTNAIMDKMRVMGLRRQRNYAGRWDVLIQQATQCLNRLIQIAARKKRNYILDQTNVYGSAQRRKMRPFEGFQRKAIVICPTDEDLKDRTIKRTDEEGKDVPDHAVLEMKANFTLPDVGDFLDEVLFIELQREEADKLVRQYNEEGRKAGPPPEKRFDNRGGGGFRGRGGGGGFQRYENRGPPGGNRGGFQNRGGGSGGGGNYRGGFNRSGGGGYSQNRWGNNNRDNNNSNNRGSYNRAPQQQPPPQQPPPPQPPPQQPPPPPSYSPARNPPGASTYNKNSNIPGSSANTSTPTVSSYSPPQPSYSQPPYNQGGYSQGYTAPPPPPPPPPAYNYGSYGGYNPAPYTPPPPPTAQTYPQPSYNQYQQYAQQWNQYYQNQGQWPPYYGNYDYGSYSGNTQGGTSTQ
Method: as §1

[4] = molecular target: PHAX (UniProt Q9H814)
PHAX, sequence (Q9H814 whole entry): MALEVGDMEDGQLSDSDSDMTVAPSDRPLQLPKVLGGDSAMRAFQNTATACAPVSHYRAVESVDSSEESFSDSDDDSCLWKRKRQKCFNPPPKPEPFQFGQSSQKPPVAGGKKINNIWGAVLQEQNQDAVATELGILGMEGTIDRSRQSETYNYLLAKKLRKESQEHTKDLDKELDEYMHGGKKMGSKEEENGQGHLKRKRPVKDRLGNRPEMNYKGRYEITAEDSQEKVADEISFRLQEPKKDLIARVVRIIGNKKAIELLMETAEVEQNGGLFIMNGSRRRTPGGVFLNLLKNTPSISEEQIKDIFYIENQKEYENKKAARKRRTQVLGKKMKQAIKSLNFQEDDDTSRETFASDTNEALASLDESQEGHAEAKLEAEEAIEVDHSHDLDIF
Method: as §1

[5] = molecular target: T3, ZCCHC8 (UniProt Q6NZY4)
T3 sequence: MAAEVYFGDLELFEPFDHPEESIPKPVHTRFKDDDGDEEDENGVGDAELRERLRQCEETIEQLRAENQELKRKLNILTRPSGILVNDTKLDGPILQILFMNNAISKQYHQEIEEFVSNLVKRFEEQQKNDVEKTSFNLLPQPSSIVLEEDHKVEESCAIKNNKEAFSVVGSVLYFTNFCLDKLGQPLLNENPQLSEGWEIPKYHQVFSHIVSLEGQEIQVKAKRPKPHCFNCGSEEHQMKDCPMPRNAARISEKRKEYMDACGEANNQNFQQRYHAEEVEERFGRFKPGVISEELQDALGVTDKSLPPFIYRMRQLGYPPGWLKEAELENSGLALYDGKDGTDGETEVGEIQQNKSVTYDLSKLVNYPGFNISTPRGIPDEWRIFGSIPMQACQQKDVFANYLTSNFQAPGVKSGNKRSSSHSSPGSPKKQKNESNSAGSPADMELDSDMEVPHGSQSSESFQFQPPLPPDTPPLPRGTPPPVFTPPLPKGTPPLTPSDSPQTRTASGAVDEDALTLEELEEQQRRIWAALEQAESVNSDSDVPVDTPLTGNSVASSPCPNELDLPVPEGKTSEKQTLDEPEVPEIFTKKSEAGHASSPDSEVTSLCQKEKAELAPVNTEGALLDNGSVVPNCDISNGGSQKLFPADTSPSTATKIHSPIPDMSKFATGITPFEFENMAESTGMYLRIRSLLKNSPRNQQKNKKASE
Method: as §1

DHX15, sequence (O43143 whole entry): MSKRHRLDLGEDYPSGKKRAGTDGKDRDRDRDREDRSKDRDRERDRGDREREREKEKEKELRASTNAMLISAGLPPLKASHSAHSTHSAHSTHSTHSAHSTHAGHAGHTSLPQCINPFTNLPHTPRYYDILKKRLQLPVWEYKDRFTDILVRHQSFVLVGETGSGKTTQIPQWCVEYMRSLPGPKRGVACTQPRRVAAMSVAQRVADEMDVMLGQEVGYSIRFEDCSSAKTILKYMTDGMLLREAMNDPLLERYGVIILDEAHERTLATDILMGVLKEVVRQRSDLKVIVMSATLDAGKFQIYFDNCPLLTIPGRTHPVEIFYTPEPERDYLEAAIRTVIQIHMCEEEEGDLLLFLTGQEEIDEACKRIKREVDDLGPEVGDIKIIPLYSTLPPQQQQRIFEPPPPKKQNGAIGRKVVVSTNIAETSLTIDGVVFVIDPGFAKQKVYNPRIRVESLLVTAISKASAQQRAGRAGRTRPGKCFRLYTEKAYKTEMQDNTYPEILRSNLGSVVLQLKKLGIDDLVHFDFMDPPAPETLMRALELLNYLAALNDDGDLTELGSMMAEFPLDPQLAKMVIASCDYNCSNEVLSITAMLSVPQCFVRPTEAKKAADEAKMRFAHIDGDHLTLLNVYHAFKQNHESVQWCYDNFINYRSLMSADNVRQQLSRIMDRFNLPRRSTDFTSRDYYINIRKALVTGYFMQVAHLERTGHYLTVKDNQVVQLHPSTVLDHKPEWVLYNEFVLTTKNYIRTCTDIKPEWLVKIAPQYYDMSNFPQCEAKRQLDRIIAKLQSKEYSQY

UAUUUAU showed a Kd [1] of 157 nM, a Kd [2] of 632 nM and a Kd [3] of 427 nM. For the same sequence, the Kd [4] was 5070 nM and the Kd [5] was 200 nM.

Work on AAUAAA yielded a Kd [1] of 446 nM, a Kd [2] of 573 nM and a Kd [3] of 308 nM. It also gave a Kd [4] of 15500 nM and a Kd [5] of 190 nM.

Sequence CUGUCCU has a Kd [1] of 358 nM, a Kd [2] of 1850 nM and a Kd [3] of 35.7 nM. The Kd [4] was 533 nM and the Kd [5] was 1740 nM.
